From publication PMC7256037, “Identification and characterization of mammaglobin-A epitope in heterogenous breast cancers for enhancing tumor-targeting therapy” (Signal Transduction and Targeted Therapy, 2020)

Tests used:
[1] = biological target: T1, human mammaglobin-A (Mam-A) protein, antigen of the ELISA and SPR (Homo sapiens, UniProt Q13296); experiment: ELISA; indirect ELISA of the mAbs on Mam-A
T1 construct: mammaglobin-A, human

Peptide 733-3RE-2 = biological target: T2, Peptide 733-3RE-2 (Homo sapiens); experiment: immunostaining of cells or tissue; pre-blocking test: synthetic peptide pre-incubated with mAb785; binding of the peptide read from the loss of immunostaining of breast cancer sections; conditions: both partners purified
T2 construct: residues 42-51 of human mammaglobin-A; also called truncated peptide without PV; source: synthetic peptide
T2 chain: YKELLQEFID

[2] = biological target: T3, mammaglobin-A (Mam-A) on breast cancer cells and in breast cancer tissue (Homo sapiens, UniProt Q13296); experiment: immunostaining of cells or tissue; ZR75.1 cells and tumor slides (GFP in the cytoplasm) fixed with cold methanol/acetone, mAb then AF594-labeled anti-mouse IgG, confocal microscopy; conditions: one partner purified
T3 construct: mammaglobin-A, endogenous in human breast cancer cells and tissue; Cells were fixed with cold methanol/acetone before staining; also called membrane-associated Mam-A; source: endogenous, breast cancer cell lines (ZR75.1, MCF-7, SKBR3, MDA-MB-231) and breast cancer tissue sections
T3 sequence (Q13296 19-93): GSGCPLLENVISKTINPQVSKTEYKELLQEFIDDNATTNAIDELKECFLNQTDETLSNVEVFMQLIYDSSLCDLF

T1 sequence (Q13296 19-93): as above

binding result [1]: binds | binding result (Peptide 733-3RE-2): binds | binding result [2]: binds
B1: mAb785 (antibody, V domains shown)
VH: EVKLVESGGGLVKPGGSLKLSCAASGFTLSNHGMSWVRQTSEKRLEWVASISIRGNTYYLDSVEGRFTISRDDARNILYLQMSGLRSEDTAIYYCTYFTSVVWGQGTTLTVSS
VL: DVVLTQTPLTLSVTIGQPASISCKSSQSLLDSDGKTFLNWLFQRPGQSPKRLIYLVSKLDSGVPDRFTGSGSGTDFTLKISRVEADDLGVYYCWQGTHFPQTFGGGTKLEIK
notes: Whole monoclonal antibody raised against human Mam-A; detected with anti-mouse IgG secondary antibodies, so probably a mouse IgG; also called anti-Mam-A mAb785
